Where a chain is given by its changes, count along the chain named. Values belong to the binder of their own block, whether it stands above or below them.
Target: hCFHR4
Test: SPR kinetics

B2: ATX-P-579 (antibody, V domains shown)
VH: QVQLQESGPGLVKPSGTLSLTCAVSGASISTSNWWTWVRQPPGKGLEWIGEIYHDGSTNYSPSLQSRVTISVDKSKNQFSLTLTSVTAADTAIYYCGDFYIDVWGNGTTVTVSS
VL: DIQMTQSPSSLSASVGDRVTITCRASQGIRKDLGWYQQKPGKAPKRLIYTASTLQSGVPSRFSGSGSGTEFTLTISSLQPEDFATYYCLQYNNYPFTFGPGTKVDIKR
Kd: 1.46 nM

B4: ATX-P-583 (antibody, V domains shown)
VH: QVQLVQSGAEVKKPGASVKVSCKASGYTFTTYGISWVRQAPGQGLEWMGWISAYSGNTHYAQSLQDRVTMTTDTSTSTAYMEVRSLRSDDTAVYYCAKDEGYCSSTGCLNLFDPWGQGTLVTVSS
VL: DIQMTQSPSSLSASVGDRVTITCRASQNIGSYLNWYQQKPGNAPKLLIYATSTLQSGVPSRFSGSGSGTDFTLIISSLHPEDFTVYYCQQSFIIPFTFGPGTKVDIKR
Kd: 0.317 nM

B5: ATX-P-565 (antibody, V domains shown)
VH: QVQLVESGGGVVQPGRSLRLSCAASGFTFNTYGIHWVRQAPGKGLEWVAVIWHDGSSKNYVDSVTGRFTISRDNSKNTVYLQMNSLRAEDTAVYYCARRGNWNYGFYYYYMDVWGKGTTVTVSS
VL: DIVMTQSPLSLPVTPGEPASISCRSSQRLLHSSGYNYLDWYLQKPGQSPQLLIYLGSSRASGVPDRFSGSGSGTDFTLKISRVEAEDVGVYYCMQGLQTPPTFGQGTKVEIKR
Kd: 6.9 nM

B6: ATX-P-607 (antibody, V domains shown)
VH: QVQLVQSGAEVKKPGASVKVSCKASGYTFTSYYMHWVRQAPGQGLEWMGIINPSGGSTSYAQKFQGRVTMTRDTSTNTVYMELSSLRSEDTAVYYCARDPEYSSAFDIWGQGTMVTVSS
VL: DIQMTQSPSSLSASVGDRGTITCRASQSIRSYLNWYQQKPGKAPKLLIYAASSLQSGVPSRFSGSGSGTDFTLTISSLQPEDFATYYCQQSYRTPVTFGPGTKVDIKR
Kd: 7.97 nM

B7: ATX-P-570 (antibody, V domains shown)
VH: QVQLQESGPGLVKPSETMSLTCTVSGGSFTGYYWSWIRQPPGKGLEWIGYVHYSGGTKSNPSLKSRVTISVDTSKNQFSLKLSSVTAADTAVYYCARERYEWNSYFDYWGQGTLVTVSS
VL: not shown
Kd: 10.5 nM

B8: ATX-P-571 (antibody, V domains shown)
VH: QVQLQESGPGLVKPSGTLSLTCAVSGGSISSRNWWSWVRQPPGKGLEWIGEIYHGGTTNYNPSLKSRVTISVDKSKNQFSLKLSSVTAADTAVYYCARGGLRLGELSPNAFDIWGQGTMVTVSS
VL: DIQMTQSPSSLSASVGDRVTITCRASQSISSYLNWYQQKPGKAPKVLIYAASSLQSGIPSRFSGSGSGTDFTLTISSLQPEDFATYYCQETYSVPLTFGGGTKVEIKR
Kd: 27.4 nM

B10: ATX-P-602 (antibody, V domains shown)
VH: not shown
VL: EIVLTQSPGTLSLSPGERATLSCRASQSVSSSYLAWYQQKPGQAPRLLIYGASSRATGIPDRFSGSGSGTQFTLTISSLQSEDFAVYYCQQYGSSPWTFGQGTKVDIKR
Kd: 33 nM

B14: ATX-P-608 (antibody, V domains shown)
VH: QVQLQESGPGLVKPSGTLSLTCAVSGGSISSSNWWSWVRQSPGKGLEWIGEIYHTGSTNKKPSLKSRVIISVDKSKNQFSLKLISVNAADTAIYYCARDREGGTTEAFDIWGQGTMVTVSS
VL: EIVMTQSPATLSVSPGERATLSCRASQSVSSNLAWYQQKPGQAPRLLIYGASTRATGIPVRFSGSGSGTQFTLTISSLQSEDFAVYYCQQYDNWRTFGQGTRLEIKR
Kd: 0.347 nM

B15: ATX-P-604 (antibody, V domains shown)
VH: QVQLQQSGPGLVKPTQTLSLTCAISGDSVSSNSAAWNWIRQSPSRGLEWLGRTYYRSKWFNGYAVSVKSRITINPDASKNQFSLHLKSVTDEDTAVYYCATDRGELLHWYFDLWGRGTLVTVSS
VL: EIVLTQSPDTLSLSPGERATLSCRASQTIRSSYLAWYQLKPGQAPRLLIYGASSRATGIPDRFSGSGSGTDFTLSISRLEPEDFAVYYCQQYGRSIIFGGGTKVEIKR
Kd: 0.222 nM

B16: ATX-P-601 (antibody, V domains shown)
VH: QVQLVQSGAEVKKPGASVKVSCKASGYTFTSYYMHWVRQAPGQGLEWMGIINPSGGSTNYAQKFQGRLTMTRDTSTNTVYMELSSLRSEDTAVYYCATDQSGGMDVWGKGTTVTVSS
VL: DIQMTQSPSSLSASVGDRVTITCRASQSINIYLNWYQQKPEKDPKLLIYAASSLQSGVPSRFSGSGSGTDFTLTISNLQPEDFATYYCQQSYSTPITFGQGTRLEIKR
Kd: 18.2 nM

B18: ATX-P-574 (antibody, V domains shown)
VH: EVQLVESGGGLVQRGGSLRLSCVASGFTFSSYAMSWVRQAPGKGLEWVSVISGSGGTTYYADSVKGRFTISRDDSKKTLYLQMNSLRAEDTAVYYCAKRGDYGDYMDVWGKGTTVTVSS
VL: DIQMTQSPSSVSASVGDRVTITCRASQGITTWLAWYQQKPGKAPKLLIFGASSLESGVPSRFSGSGSGTDFTLTISSLQPEDFATYYCQQANSFPWTFGQGTKVEIKR
Kd: 5.9 nM

B21: ATX-P-573 (antibody, V domains shown)
VH: QVQLQQSGPGLVKPSQTLSLTCAISGDSVSSNSAAWNWIRQSPSRGLEWLGRTYYRSKLYSDYAVSVKSRITINPDTSRNQFSLQLNSVTPEDTAVYYCAREGGYTYGYDYWGQGTLVTVSS
VL: B18 VL with T30S, T31S, L46V, F49Y, G50A, E55Q, W96P, Q100P, E105D
Kd: 23 nM

B23: ATX-P-576 (antibody, V domains shown)
VH: EVQLVESGGGLVQPGRSLRLSCTASGFTFDDYEMHWVRQAPGKGLEWVSDISRNSGRIGYADSVKGRFTISRDNAKNSLYLQMNSLRAEDTALYYCAKDIWGSGYFDYWGQGILVTVSS
VL: B18 VL with A25T, T30R, T31N, F49Y, G50A, E55Q, S56T, V58G, W96Y, V104L
Kd: 0.9 nM

Other lines, results leading:

Kd: 1.5 nM
B1: ATX-P-572 (antibody, V domains shown)
VH: QVQLQQSGPGLVKPSQTLSLTCAISGDSVSSNSAAWNWIRQSPSRGLEWLGMTYYRSKWYSVFAVSVKSRITINTDTSKNQFSLQLNSVTPEDTAVYYCAREGGIVGATPFDYWGQGTLVTVSS
VL: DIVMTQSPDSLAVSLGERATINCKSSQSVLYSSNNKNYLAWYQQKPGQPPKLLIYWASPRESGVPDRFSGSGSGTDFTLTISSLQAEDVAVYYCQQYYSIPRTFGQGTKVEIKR

Kd: 31.9 nM
B3: ATX-P-580 (antibody, V domains shown)
VH: QVQLQESGPGLVKPSGTLSLTCAVSGGSISTSDWWTWVRQPPGKGLEWIGEIYHSGSTNYNPSLKSRVTISVDKSKNQFSLKLSSVTAADTAVYYCADWYFDLWGRGTLVTVSS
VL: B2 VL with K31N, T50A, T53S, T74A, Q90H, Y91F, N93S

Kd: 0.168 nM
B9: ATX-P-597 (antibody, V domains shown)
VH: QVQLVQSGAEVKKPGASVKVSCKASGYTFTNYYMQWVRQAPGQGLEWLGIIDPSGGSTTYAQKFQGRVTMTRDTSTSTVHMELRSLRSEDTAVYYCARDEGTDRPGWGYWGQGTLVTVSS
VL: B6 VL with V15I, G19V, R30S, N34D, Q38R, P40S, R93S, V96L, P100G

Kd: 6.87 nM
B11: ATX-P-588 (antibody, V domains shown)
VH: EVQLVESGGGLVQPGRSLRLSCAASGFTFEDYAMHWVRQAPGKGLEWVSGISWNSGSIGYADSVKGRFTISRDNAKKSLYLQMNSLRAEDTALYYCTKDRDDGYNYAGVFDYWGQGTLVTVSS
VL: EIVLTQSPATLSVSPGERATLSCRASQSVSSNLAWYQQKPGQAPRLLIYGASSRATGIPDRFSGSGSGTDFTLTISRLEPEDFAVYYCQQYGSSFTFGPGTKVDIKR

Kd: 25 nM
B12: ATX-P-578 (antibody, V domains shown)
VH: EVQLVESGGGLVQPGGSLRLSCAASGFTFSRYSMNWVRQAPGKGLEWVSYISSSSSTIFHADSVKGRFTISRDNAKNSLYLQMNSLRDEDTAVYYCARGNWNYYYMDVWGKGTTVTVSS
VL: DIQMTQSPSTLSASVGDRVTISCRASQSVNSWLAWYQQKPGKAPKLLIYKASNLEGGVPSSFSGSGSGTEFTLTISSLQPDDFATYYCQQYDTSWTFGQGTKVEIKR

Kd: 4.98 nM
B13: ATX-P-609 (antibody, V domains shown)
VH: QVQLQESGPGLVKPSGTLSLTCAVSGGSISSSNWWSWVRQPPGKGLEWIGEIYHSGSTNYNPSLKSRVTISVDKSKNQFSLKLRSVTAADTAVYYCARDQLSSGPTDAFDIWGQGTMVTVSS
VL: B14 VL with R102K

Kd: 1.62 nM
B17: ATX-P-568 (antibody, V domains shown)
VH: EVQLVESGGGLVQPGGSLRLSCAASGFPFSSYVMSWVRQAPGKGLEWVSVISVSGGSTFYADSVRGRFTISRDNSKNTLYLQVYSLRAEDTAVYYCAKDGLAVAGFDHWGQGTLVTVSS
VL: DIQMTQSPSTLSASVGDRVTITCRASQSISTWLAWYQQKPGKAPKLLIHKASGLESGVPSRFSGSGSGTEFTLTISSLQPDDFATYYCQQYNSFSLIFGGGTRVEIKR

Kd: 31.9 nM
B19: ATX-P-561 (antibody, V domains shown)
VH: QVQLQQSGPGLVKPSQTLSLTCAISGDSVSSNSAAWNWIRQSPSRGLEWLGRTYYRSKWYNGYAVSMKSRITINPDTSKNQFSLQLNSVTPEDTAMYYCAREGVGATTGFDYWGQGTLVTVSS
VL: B18 VL with V11L, T30S, T31S, A34T, F49Y, G50A, E55Q, S56G, W96P

Kd: 2.12 nM
B20: ATX-P-560 (antibody, V domains shown)
VH: QVQLQQSGPGLVKPSQTLSLTCAISGDSVSSNTAAWNWIRQSPSRGLEWLGRTYYRSKWYNDYAVSVKSRITINPDTSKNQFSLQLSSVTPQDTAIYYCASDNWNNGGPGFDPWGQGTLVTVSS
VL: B18 VL with A13T, T30S, T31S, F49S, G50A, E55Q, S77T, T85S, W96P, K103R

Kd: 0.487 nM
B22: ATX-P-562 (antibody, V domains shown)
VH: QVQLQQSGPGLVKSSQTLSLTCAISGDTVSSNSAAWNWIRQSPSRGLEWLGRTFYRSRWSAAYAASVSSRITINPDTSKNQFSLQLTSVTPADTAVYYCAREGVGSSTGFDYWGQGTLVTVSS
VL: B18 VL with V15I, Q27K, T30S, T31I, L46V, F49S, G50A, E55Q, V58A, W96P

Kd: 9.65 nM
B24: ATX-P-581 (antibody, V domains shown)
VH: B21 VH with S33N, L59W, S61N, D62A, T72I, T106I, Y109L, Y111Q
VL: B18 VL with I29V, T30N, T31N, F49H, G50A, E55L, S76T, W96I, K103R, V104L

From patent US20250289873A1 (published 2025)
